The results in this text go back to patent US8168188.

For test [1], the target named is amyloid β monomers (length not stated) (UniProt P05067). The experiment in a line: assay not stated.
The target in test [2] is amylospheroid 42 (Homo sapiens (Human)) (UniProt P05067). The test can be described thus: SPR (BIAcore 3000), amylospheroid coupled to CM5 chip, antibody in solution. Background: SPR reads the build-up and loss of mass on a sensor chip optically.
Test [3] deals with amylospheroid 40 (Homo sapiens (Human)) (UniProt P05067). The test is described as above.

In test [1], “commercialized N-terminal antibodies 82E1 (IBL) (antibody)” had a reactivity with amyloid β monomers relative to reactivity with amylospheroid of 2 fold.
In general, Kd refers to the free concentration of one partner at which half of the binding sites on the other are occupied at equilibrium, for simple one-to-one binding. For the substance “commercialized anti-amyloid β antibody 4G8”, the dissociation constant Kd in test [2] is 3.2 nM; in test [3], 1.7 nM.
On to “commercialized anti-amyloid β antibody 6E10”, for which the Kd in test [3] is 2.9 nM. In other words, the single-digit nanomolar range.
